Experiment [1] concerns the target c-Met (Homo sapiens, UniProt P08581). The experiment in a line: specificity of expressed scFv of huAbF46. Type of experiment: binding. Conditions: after expression. The text has this: For use in constructing an scFv of the huAbF46 antibody from the heavy and light chain variable regions of the huAbF46 antibody, a gene was designed to have the structure of “VH-linker-VL” for each of the heavy and the light chain variable region, with the linker including the amino acid sequence “[…]” (SEQ ID NO: 54). A polynucleotide sequence (SEQ ID NO: 55) encoding the designed scFv of huAbF46 was synthesized in Bioneer and an expression vector for the polynucleotide had the nucleotide sequence of SEQ ID NO: 56.

In experiment [2] the test system is gastric cancer cell line SNU668. The experiment in a line: cell proliferation assay (CellTiter Glo), SNU668. The experiment is classed as cell-based. Conditions: ME22S 1/5 dilutions from 60 nM, alone or with linsitinib 10 μM, 72 hours, FIG. 2. On the procedure:
(§1) 72 hours after the treatment with the antibody and/or the inhibitor drug, the number of living cells was counted using a CellTiter Glo assay (Promega, G7573). This assay measures the amount of ATP which reflects metabolism of living cells, thereby counting the number of living cells.
(§2) 72 hours after the co-treatment, the cell number was measured by CellTiter Glo assay (Promega, G7573).

In experiment [3] the test system is gastric cancer cell line SNU5. As to the kind of experiment: cell proliferation assay (CellTiter Glo), SNU5. Type of experiment: cell-based. Conditions: ME22S 1/5 dilutions from 60 nM, alone or with linsitinib 10 μM, 72 hours, FIG. 2. As to the method: as §1, §2
For experiment [4], the system named is gastric cancer cell line MKN45. As to the kind of experiment: cell proliferation assay (CellTiter Glo), MKN45. Type of experiment: cell-based. The note with it: ME22S 1/5 dilutions from 10 nM and/or linsitinib 10 μM, 72 hours, FIGS. 4A, 4B. On the procedure:
as §1
(§3) 72 hours after the co-treatment, the number of living cells was counted by CellTiter Glo assay (Promega, G7573).

In experiment [5] the test system is L3-1Y/IgG2 resistant MKN45re#1 and MKN45re#24 cell lines. As to the kind of experiment: cell proliferation assay (CellTiter Glo), anti-c-Met antibody resistant MKN45. Type of experiment: cell-based. As to the method:
To obtain anti-c-Met antibody resistant MKN45 gastric cancer cells, MKN45 gastric cancer cells were administered with L3-1Y/IgG2 for at least 3 months by increasing the administration concentration. The amount of L3-1Y/IgG2 administered was increased from 1 μg/ml to 10 μg/ml, until resistance to L3-1Y/IgG2 is induced. The obtained L3-1Y/IgG2 resistant clones were named as MKN45re#1 and MKN45re#24, respectively.
72 hours after the co-treatment, the number of living cells was counted by CellTiter Glo assay (Promega, G7573). […] For comparison, the same experiment was preformed except that cells were treated with ME22S alone at the 1/5 diluted concentration starting from 10 nM.

The test system of experiment [6] is lung cancer cell line HCC827. As to the kind of experiment: cell proliferation assay (CellTiter Glo), HCC827. The note with it: ME22S 1/5 dilutions from 150 nM and/or linsitinib 10 μM, 72 hours, FIGS. 3A, 3B. The experiment is classed as cell-based. As to the method: as §1, §3

The values that follow come from patent publication US9943596B2, “Combination therapy using dual inhibitor of c-MET and EGFR and IGF-1R inhibitor” (Samsung Electronics Co., Ltd., priority 2014, dated 2018).

Sequence of c-Met (P08581 25-1390): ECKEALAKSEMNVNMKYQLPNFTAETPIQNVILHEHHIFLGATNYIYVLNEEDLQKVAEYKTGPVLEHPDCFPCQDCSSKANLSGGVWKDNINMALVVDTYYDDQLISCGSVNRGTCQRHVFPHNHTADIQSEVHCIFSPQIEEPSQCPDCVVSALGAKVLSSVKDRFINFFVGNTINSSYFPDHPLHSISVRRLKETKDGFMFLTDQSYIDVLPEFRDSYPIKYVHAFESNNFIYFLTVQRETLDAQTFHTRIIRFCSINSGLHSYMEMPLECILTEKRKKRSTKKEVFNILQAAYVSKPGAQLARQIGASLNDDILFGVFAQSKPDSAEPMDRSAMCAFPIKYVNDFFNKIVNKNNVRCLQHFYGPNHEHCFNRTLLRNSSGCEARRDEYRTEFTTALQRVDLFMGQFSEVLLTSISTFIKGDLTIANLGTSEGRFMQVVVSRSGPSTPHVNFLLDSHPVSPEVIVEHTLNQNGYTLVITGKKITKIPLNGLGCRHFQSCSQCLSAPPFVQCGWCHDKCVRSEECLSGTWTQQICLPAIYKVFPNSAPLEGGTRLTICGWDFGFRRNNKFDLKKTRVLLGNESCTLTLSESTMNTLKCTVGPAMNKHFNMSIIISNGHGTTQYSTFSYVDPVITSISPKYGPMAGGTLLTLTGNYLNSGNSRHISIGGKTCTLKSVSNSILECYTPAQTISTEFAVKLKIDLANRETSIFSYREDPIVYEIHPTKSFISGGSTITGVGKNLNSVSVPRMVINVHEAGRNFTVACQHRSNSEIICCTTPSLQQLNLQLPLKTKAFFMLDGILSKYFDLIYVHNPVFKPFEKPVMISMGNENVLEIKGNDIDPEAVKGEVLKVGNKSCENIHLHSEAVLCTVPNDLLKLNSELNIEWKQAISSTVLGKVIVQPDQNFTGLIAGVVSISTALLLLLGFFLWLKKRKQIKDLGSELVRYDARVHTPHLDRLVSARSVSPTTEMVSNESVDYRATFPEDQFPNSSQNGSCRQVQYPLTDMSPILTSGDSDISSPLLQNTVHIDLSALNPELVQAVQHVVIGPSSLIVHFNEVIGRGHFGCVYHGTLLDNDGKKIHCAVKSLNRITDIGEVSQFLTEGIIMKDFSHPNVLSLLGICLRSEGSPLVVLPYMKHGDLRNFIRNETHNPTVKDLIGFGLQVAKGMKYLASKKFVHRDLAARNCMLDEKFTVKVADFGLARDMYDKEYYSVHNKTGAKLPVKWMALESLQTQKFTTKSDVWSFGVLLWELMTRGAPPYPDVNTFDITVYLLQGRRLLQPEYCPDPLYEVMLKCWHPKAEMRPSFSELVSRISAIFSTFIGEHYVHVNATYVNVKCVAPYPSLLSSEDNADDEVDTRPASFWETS

B1: scFv of huAbF46: scFv of structure VH-linker-VL from the heavy and light chain variable regions of huAbF46 (protein)
scFv: EVQLVESGGGLVQPGGSLRLSCAASGFTFTDYYMSWVRQAPGKGLEWLGFIRNKANGYTTEYSASVKGRFTISRDNSKNTLYLQMNSLRAEDTAVYYCARDNWFAYWGQGTLVTVSSGLGGLGGGGSGGGGSGGSSGVGSDIQMTQSPSSLSASVGDRVTITCKSSQSLLASGNQNNYLAWHQQKPGKAPKMLIIWASTRVSGVPSRFSGSGSGTDFTLTISSLQPEDFATYYCQQSYSAPLTFGQGTKVEIKR
Turning to B1, the “specificity to c-Met” value in experiment [1] is on record as “exhibit specificity to c-Met”.

B2: ME22S: anti-c-Met/anti-EGFR bispecific antibody in which the modified anti-EGFR scFv is fused at the c-terminal of L3-1Y-IgG2 (antibody)
heavy: EVQLVESGGGLVQPGGSLRLSCAASGFTFTDYYMSWVRQAPGKGLEWLGFIRNKANGYTTEYSASVKGRFTISRDNSKNTLYLQMNSLRAEDTAVYYCARDNWFAYWGQGTLVTVSSASTKGPSVFPLAPCSRSTSESTAALGCLVKDYFPEPVTVSWNSGALTSGVHTFPAVLQSSGLYSLSSVVTVPSSNFGTQTYTCNVDHKPSNTKVDKTVERKCCVECPPCPAPPVAGPSVFLFPPKPKDTLMISRTPEVTCVVVDVSHEDPEVQFNWYVDGVEVHNAKTKPREEQFNSTFRVVSVLTVVHQDWLNGKEYKCKVSNKGLPAPIEKTISKTKGQPREPQVYTLPPSREEMTKNQVSLTCLVKGFYPSDIAVEWESNGQPENNYKTTPPMLDSDGSFFLYSKLTVDKSRWQQGNVFSCSVMHEALHNHYTQKSLSLSPGKGGGGSGGGGSEVQLLESGGGLVQPGGSLRLSCAASGFTFSNYDMSWVRQAPGKCLEWVSGISHSSGSKYYADSVKGRFTISRDNSKNTLYLQMNSLRAEDTAVYYCAKDATPRPLKPFDYWGQGTLVTVSSGGGGSGGGGSGGGGSQSVLTQPPSASGTPGQRVTISCTGSSSNIGNNDVSWYQQLPGTAPKLLIYDDNKRPSGVPDRFSGSKSGTSASLAISGLRSEDEADYYCGSWDASLNAYVFGCGTKLTVLG
light: DIQMTQSPSSLSASVGDRVTITCKSSQSLLASGNQNNYLAWYQQKPGKAPKMLIIWASTRVSGVPSRFSGSGSGTDFTLTISSLQPEDFATYYCQQSYSRPYTFGQGTKVEIKRTVAAPSVFIFPPSDEQLKSGTASVVCLLNNFYPREAKVQWKVDNALQSGNSQESVTEQDSKDSTYSLSSTLTLSKADYEKHKVYACEVTHQGLSSPVTKSFNRGEC
On to B2, for which the “cell proliferation inhibition effect” value is “does not exhibit a cell proliferation inhibition effect” in experiment [2] and “has a cell proliferation inhibition effect” in experiment [3]. For the same molecule, in experiment [4], the “cancer cell proliferation inhibition” value is “can inhibit proliferation”. Further, the “cancer cell proliferation inhibition effect” value is reported as “no cancer cell proliferation inhibition effect” in experiment [5] (MKN45re#1 (linsitinib 10 μM) or MKN45re#24 (linsitinib 2.5 μM), ME22S 1/5 dilutions from 10 nM, 72 hours, FIG. 5) and “not observed” in experiment [6]. Further, in experiment [5] (anti-c-Met antibody (L3-1Y/IgG2) resistant MKN45 gastric cancer cell line), the “resistance of the cell line to the antibody” value was “resistant”.
